Measurements from patent US20140087436.
Changes are numbered by the printed parent chain.

Key:
Assay in all cases: cell_activity
[1] = target: T1, CbbR G125S/V265M (Ralstonia eutropha) (UniProt P42722); settings: beta-galactosidase, chemoheterotrophic; chemoautotrophic 6770
T1 sequence: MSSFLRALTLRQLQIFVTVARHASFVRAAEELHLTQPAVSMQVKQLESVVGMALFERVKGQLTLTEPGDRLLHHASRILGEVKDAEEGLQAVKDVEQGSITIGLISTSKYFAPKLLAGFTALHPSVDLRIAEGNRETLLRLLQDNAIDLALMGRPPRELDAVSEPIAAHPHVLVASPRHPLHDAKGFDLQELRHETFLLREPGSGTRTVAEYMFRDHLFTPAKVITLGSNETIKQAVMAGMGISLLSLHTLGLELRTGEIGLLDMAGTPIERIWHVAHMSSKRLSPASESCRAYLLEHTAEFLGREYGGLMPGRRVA

[2] = target: T2, CbbR D144N (Ralstonia eutropha) (UniProt P42722); settings: beta-galactosidase, chemoheterotrophic; chemoautotrophic 6932
T2 sequence: T1 sequence with S125G, D144N, M265V

[3] = target: T3, CbbR E87K/G242S (Ralstonia eutropha) (UniProt P42722); settings: beta-galactosidase, chemoheterotrophic; chemoautotrophic 4820
T3 sequence: T1 sequence with E87K, S125G, G242S, M265V

[4] = target: T4, CbbR G125D (Ralstonia eutropha) (UniProt P42722); settings: beta-galactosidase, chemoheterotrophic; chemoautotrophic 6777
T4 sequence: T1 sequence with S125D, M265V

[5] = target: T5, CbbR P221S/T299I (Ralstonia eutropha) (UniProt P42722); settings: beta-galactosidase, chemoheterotrophic; chemoautotrophic 5312
T5 sequence: T1 sequence with S125G, P221S, M265V, T299I

[6] = target: T6, CbbR E87K (Ralstonia eutropha) (UniProt P42722); settings: beta-galactosidase, chemoheterotrophic; chemoautotrophic 5515
T6 sequence: T1 sequence with E87K, S125G, M265V

[7] = target: T7, CbbR T232I (Ralstonia eutropha) (UniProt P42722); settings: beta-galactosidase, chemoheterotrophic; chemoautotrophic 5005
T7 sequence: T1 sequence with S125G, T232I, M265V

[8] = target: T8, CbbR L79F (Ralstonia eutropha) (UniProt P42722); settings: beta-galactosidase, chemoheterotrophic; chemoautotrophic 6840
T8 sequence: T1 sequence with L79F, S125G, M265V

For cbb promoter in lacZ reporter strain, the activity [1] was 53 nmol/min/mg, the activity [2] was 809 nmol/min/mg and the activity [3] was 303 nmol/min/mg. It also gave an activity [4] of 108 nmol/min/mg, an activity [5] of 655 nmol/min/mg and an activity [6] of 1600 nmol/min/mg. For the same substance, the activity [7] was 303 nmol/min/mg and the activity [8] was 218 nmol/min/mg.
